Assay results as given in US20240390468A1, “SURVIVIN AND MAGE-A9 DUAL-TARGETED IMMUNOTHERAPY” (IMMUNOVACCINE TECHNOLOGIES INC., priority 2022, published 2024).

Experiments:
Details in all cases: remark: other sources report otherwise
[1] = target: MHC class 1 allele A*02:01; test: REVEAL R-score, HLA-A*02:01
[2] = target: MHC class 1 allele A*02:01; test: REVEAL peptide-MHC binding assay, HLA-A*02:01
[3] = target: MHC class 1 allele A*02:01; test: REVEAL kinetic score, HLA-A*02:01
[4] = target: MHC class 1 allele A*02:01; test: REVEAL on-rate assay, HLA-A*02:01
[5] = target: MHC class 1 allele A*02:01; test: REVEAL off-rate assay, HLA-A*02:01

B1: SurA24 (survivin peptide antigen HLA-A24, …) (peptide)
peptide: STFKNWPFL
R-score [1]: 0
REVEAL score [2]: 61.9
Kinetic score [3]: 0
On-rate T1/2 [4]: 31.5 h
Off-rate T1/2 [5]: 7.2 min
